Laboratory results as given in PMC4489214.

Target: LRRTM2 expressed on K562 cells (mouse) (UniProt Q8BGA3)
Test: cell adhesion assay; K562 'prey' cells (NRX1-alpha variant, beta-Gal, RFP) mixed with biotinylated K562 'bait' cells (LRRTM2 or NL3(A2), AP-GFP, BirA-ER) on neutravidin magnetic beads; 60 min at RT in DMEM without serum; bound cells read by beta-Gal activity

Chain of UniProt Q8BGA3 (Q8BGA3 34-515): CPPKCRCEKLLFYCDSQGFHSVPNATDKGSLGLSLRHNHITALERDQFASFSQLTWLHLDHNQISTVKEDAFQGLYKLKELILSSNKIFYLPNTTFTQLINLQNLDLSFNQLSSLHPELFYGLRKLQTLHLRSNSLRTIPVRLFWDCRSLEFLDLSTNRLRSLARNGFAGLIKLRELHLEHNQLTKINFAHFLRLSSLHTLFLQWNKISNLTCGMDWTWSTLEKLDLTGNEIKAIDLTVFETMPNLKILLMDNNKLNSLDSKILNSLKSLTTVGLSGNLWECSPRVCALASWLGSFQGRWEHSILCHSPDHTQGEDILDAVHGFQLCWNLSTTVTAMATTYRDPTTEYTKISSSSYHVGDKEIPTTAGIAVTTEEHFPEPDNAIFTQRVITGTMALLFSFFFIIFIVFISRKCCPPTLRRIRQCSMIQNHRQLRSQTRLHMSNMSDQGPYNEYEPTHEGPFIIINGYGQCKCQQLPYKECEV

fold increase of adhesion against the AS6+ isoforms | Substance
3 fold | NRX1alpha lacking the insertions at AS3 and AS6, expressed on K562 cells (from UniProt Q9CS84 31-1514) (receptor)
3 fold | NRX1alpha with the insertion at AS3 and lacking the insertion at AS6, expressed on K562 cells (from UniProt Q9CS84 31-1514) (receptor)
